Results: patent US20070092940A1

Target: rabbit albumin (rabbit) (UniProt P49065)
Assay: BIAcore kinetic analysis

rabbit albumin (rabbit), sequence (P49065 25-608 limits assumed): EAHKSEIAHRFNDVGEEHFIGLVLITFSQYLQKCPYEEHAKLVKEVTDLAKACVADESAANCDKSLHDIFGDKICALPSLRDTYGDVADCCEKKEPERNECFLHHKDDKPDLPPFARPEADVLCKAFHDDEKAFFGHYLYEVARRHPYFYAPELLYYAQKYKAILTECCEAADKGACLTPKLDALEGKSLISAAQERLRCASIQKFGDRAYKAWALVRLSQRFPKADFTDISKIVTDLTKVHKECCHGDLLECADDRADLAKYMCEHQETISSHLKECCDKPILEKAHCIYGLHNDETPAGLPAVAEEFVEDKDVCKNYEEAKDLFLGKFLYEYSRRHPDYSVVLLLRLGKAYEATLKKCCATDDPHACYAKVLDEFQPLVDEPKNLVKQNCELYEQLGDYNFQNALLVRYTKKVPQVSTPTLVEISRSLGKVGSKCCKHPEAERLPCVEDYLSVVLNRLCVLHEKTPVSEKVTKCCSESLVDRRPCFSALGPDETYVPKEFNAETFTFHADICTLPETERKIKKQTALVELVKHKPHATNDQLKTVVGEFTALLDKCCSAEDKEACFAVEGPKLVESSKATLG

Substance: ABP-hu4D5Fabv8 wild type
- Kd: 124 nM
